This data set deals with the molecule itself. Description: SDS-PAGE of deoxycholate-induced oligomers.

From article PMC11043418, “Bacillus velezensis iturins inhibit the hemolytic activity of Staphylococcus aureus” (Scientific Reports, 2024) come the findings set out here.

B1: alpha-hemolysin (natural protein)
chain: ADSDINIKTGTTDIGSNTTVKTGDLVTYDKENGMHKKVFYSFIDDKNHNKKLLVIRTKGTIAGQYRVYSEEGANKSGLAWPSAFKVQLQLPDNEVAQISDYYPRNSIDTKEYMSTLTYGFNGNVTGDDTGKIGGLIGANVSIGHTLKYVQPDFKTILESPTDKKVGWKVIFNNMVNQNWGPYDRDSWNPVYGNQLFMKTRNGSMKAADNFLDPNKASSLLSSGFSPDFATVITMDRKASKQQTNIDVIYERVRDDYQLHWTSTNWKGTNTKDKWTDRSSERYKIDWEKEEMTN
notes: also called α-hemolysin; Hla
By stoichiometry N is commonly meant the number of molecules, sites or subunits per partner or assembly. Regarding B1, the “stoichiometry N” value was found to be 7.
